B1: Hammerhead Ribozyme (parent)
chain: ACCGGAUGUGCUUUCCGGUCUGAUGAGUCCGUGAGGACGAAACAG

Variants of: B1
Assay: self-cleavage, relative activity (ratio to wild type); higher = more cleavage; co-transcriptional

Variant	self-cleavage
ACCGGAUGUGCUUUCCGGUCUGAUGAGUCCGUGAGUCCGAAACAG [G36U A37C]	0.331
ACCGGAUGUGCUUUCCGGUCUGAUGAGUCCGUGAGUGCGAAACAG [G36U A37G]	0.479
ACCGGAUGUGCUUUCCGGUCUGAUGAGUCCGUGAGUUCGAAACAG [G36U A37U]	0.724
ACCGGAUGUGCUUUCCGGUCUGAUGAGUCCGUGAGUACGCAACAG [G36U A40C]	0.43
ACCGGAUGUGCUUUCCGGUCUGAUGAGUCCGUGAGUACGGAACAG [G36U A40G]	0.29
ACCGGAUGUGCUUUCCGGUCUGAUGAGUCCGUGAGUACGUAACAG [G36U A40U]	0.281
ACCGGAUGUGCUUUCCGGUCUGAUGAGUCCGUGAGUACGACACAG [G36U A41C]	0.309
ACCGGAUGUGCUUUCCGGUCUGAUGAGUCCGUGAGUACGAGACAG [G36U A41G]	0.391
ACCGGAUGUGCUUUCCGGUCUGAUGAGUCCGUGAGUACGAUACAG [G36U A41U]	0.372
ACCGGAUGUGCUUUCCGGUCUGAUGAGUCCGUGAGUACGAACCAG [G36U A42C]	0.37
ACCGGAUGUGCUUUCCGGUCUGAUGAGUCCGUGAGUACGAAGCAG [G36U A42G]	0.316
ACCGGAUGUGCUUUCCGGUCUGAUGAGUCCGUGAGUACGAAUCAG [G36U A42U]	0.329
ACCGGAUGUGCUUUCCGGUCUGAUGAGUCCGUGAGUACGAAACCG [G36U A44C]	0.339
ACCGGAUGUGCUUUCCGGUCUGAUGAGUCCGUGAGUACGAAACGG [G36U A44G]	0.706
ACCGGAUGUGCUUUCCGGUCUGAUGAGUCCGUGAGUACGAAACUG [G36U A44U]	0.379
ACCGGAUGUGCUUUCCGGUCUGAUGAGUCCGUGAGUAAGAAACAG [G36U C38A]	0.326
ACCGGAUGUGCUUUCCGGUCUGAUGAGUCCGUGAGUAGGAAACAG [G36U C38G]	0.331
ACCGGAUGUGCUUUCCGGUCUGAUGAGUCCGUGAGUAUGAAACAG [G36U C38U]	0.674
ACCGGAUGUGCUUUCCGGUCUGAUGAGUCCGUGAGUACGAAAAAG [G36U C43A]	0.36

Variant	self-cleavage
ACCGGAUGUGCUUUCCGGUCUGAUGAGUCCGUGAGUACGAAAGAG [G36U C43G]	0.325
ACCGGAUGUGCUUUCCGGUCUGAUGAGUCCGUGAGUACGAAAUAG [G36U C43U]	0.304
ACCGGAUGUGCUUUCCGGUCUGAUGAGUCCGUGAGUACAAAACAG [G36U G39A]	0.352
ACCGGAUGUGCUUUCCGGUCUGAUGAGUCCGUGAGUACCAAACAG [G36U G39C]	0.34
ACCGGAUGUGCUUUCCGGUCUGAUGAGUCCGUGAGUACUAAACAG [G36U G39U]	0.333
ACCGGAUGUGCUUUCCGGUCUGAUGAGUCCGUGAGUACGAAACAA [G36U G45A]	0.452
ACCGGAUGUGCUUUCCGGUCUGAUGAGUCCGUGAGUACGAAACAC [G36U G45C]	0.454
ACCGGAUGUGCUUUCCGGUCUGAUGAGUCCGUGAGUACGAAACAU [G36U G45U]	0.441
ACCGGAUGUGCUUUCCGGUCUGAUGAGUCCGUGAGGCCGAAACAG [A37C]	1
ACCGGAUGUGCUUUCCGGUCUGAUGAGUCCGUGAGGCCGCAACAG [A37C A40C]	0.285
ACCGGAUGUGCUUUCCGGUCUGAUGAGUCCGUGAGGCCGGAACAG [A37C A40G]	0.354
ACCGGAUGUGCUUUCCGGUCUGAUGAGUCCGUGAGGCCGUAACAG [A37C A40U]	0.268
ACCGGAUGUGCUUUCCGGUCUGAUGAGUCCGUGAGGCCGACACAG [A37C A41C]	0.285
ACCGGAUGUGCUUUCCGGUCUGAUGAGUCCGUGAGGCCGAGACAG [A37C A41G]	0.404
ACCGGAUGUGCUUUCCGGUCUGAUGAGUCCGUGAGGCCGAUACAG [A37C A41U]	0.296
ACCGGAUGUGCUUUCCGGUCUGAUGAGUCCGUGAGGCCGAACCAG [A37C A42C]	0.241
ACCGGAUGUGCUUUCCGGUCUGAUGAGUCCGUGAGGCCGAAGCAG [A37C A42G]	0.235
ACCGGAUGUGCUUUCCGGUCUGAUGAGUCCGUGAGGCCGAAUCAG [A37C A42U]	0.27
ACCGGAUGUGCUUUCCGGUCUGAUGAGUCCGUGAGGCCGAAACCG [A37C A44C]	0.28

Variant	self-cleavage
ACCGGAUGUGCUUUCCGGUCUGAUGAGUCCGUGAGGCCGAAACGG [A37C A44G]	0.77
ACCGGAUGUGCUUUCCGGUCUGAUGAGUCCGUGAGGCCGAAACUG [A37C A44U]	0.368
ACCGGAUGUGCUUUCCGGUCUGAUGAGUCCGUGAGGCAGAAACAG [A37C C38A]	0.535
ACCGGAUGUGCUUUCCGGUCUGAUGAGUCCGUGAGGCGGAAACAG [A37C C38G]	0.381
ACCGGAUGUGCUUUCCGGUCUGAUGAGUCCGUGAGGCUGAAACAG [A37C C38U]	0.546
ACCGGAUGUGCUUUCCGGUCUGAUGAGUCCGUGAGGCCGAAAAAG [A37C C43A]	0.301
ACCGGAUGUGCUUUCCGGUCUGAUGAGUCCGUGAGGCCGAAAGAG [A37C C43G]	0.28
ACCGGAUGUGCUUUCCGGUCUGAUGAGUCCGUGAGGCCGAAAUAG [A37C C43U]	0.392
ACCGGAUGUGCUUUCCGGUCUGAUGAGUCCGUGAGGCCAAAACAG [A37C G39A]	0.295
ACCGGAUGUGCUUUCCGGUCUGAUGAGUCCGUGAGGCCCAAACAG [A37C G39C]	0.316
ACCGGAUGUGCUUUCCGGUCUGAUGAGUCCGUGAGGCCUAAACAG [A37C G39U]	0.281
ACCGGAUGUGCUUUCCGGUCUGAUGAGUCCGUGAGGCCGAAACAA [A37C G45A]	0.404
ACCGGAUGUGCUUUCCGGUCUGAUGAGUCCGUGAGGCCGAAACAC [A37C G45C]	0.337
ACCGGAUGUGCUUUCCGGUCUGAUGAGUCCGUGAGGCCGAAACAU [A37C G45U]	0.636
ACCGGAUGUGCUUUCCGGUCUGAUGAGUCCGUGAGGGCGAAACAG [A37G]	0.886
ACCGGAUGUGCUUUCCGGUCUGAUGAGUCCGUGAGGGCGCAACAG [A37G A40C]	0.407
ACCGGAUGUGCUUUCCGGUCUGAUGAGUCCGUGAGGGCGGAACAG [A37G A40G]	0.274
ACCGGAUGUGCUUUCCGGUCUGAUGAGUCCGUGAGGGCGUAACAG [A37G A40U]	0.399
ACCGGAUGUGCUUUCCGGUCUGAUGAGUCCGUGAGGGCGACACAG [A37G A41C]	0.358

— the RNAGym collection of RNA variant scans (doi:10.7554/elife.80360)
